From paper PMC12485048

Target: Ca2+/calmodulin-dependent protein kinase II (CaMKII) (mouse (endogenous in striatum)) (UniProt P28652)
Assay: co-IP; endogenous proteins in mouse striatum lysate (20 mM Tris-HCl pH 7.4, 50 mM NaCl, 0.5% NP-40, 10 mM HEPES, 0.5 mM EDTA); 2 μg primary antibody on Protein A/G or Protein G magnetic beads, lysate at 4 °C overnight; western blot; for CaMKII–PPP1CC, WT and Sh3rf2 KO striatum compared

Sequence of UniProt P28652 (P28652 whole entry): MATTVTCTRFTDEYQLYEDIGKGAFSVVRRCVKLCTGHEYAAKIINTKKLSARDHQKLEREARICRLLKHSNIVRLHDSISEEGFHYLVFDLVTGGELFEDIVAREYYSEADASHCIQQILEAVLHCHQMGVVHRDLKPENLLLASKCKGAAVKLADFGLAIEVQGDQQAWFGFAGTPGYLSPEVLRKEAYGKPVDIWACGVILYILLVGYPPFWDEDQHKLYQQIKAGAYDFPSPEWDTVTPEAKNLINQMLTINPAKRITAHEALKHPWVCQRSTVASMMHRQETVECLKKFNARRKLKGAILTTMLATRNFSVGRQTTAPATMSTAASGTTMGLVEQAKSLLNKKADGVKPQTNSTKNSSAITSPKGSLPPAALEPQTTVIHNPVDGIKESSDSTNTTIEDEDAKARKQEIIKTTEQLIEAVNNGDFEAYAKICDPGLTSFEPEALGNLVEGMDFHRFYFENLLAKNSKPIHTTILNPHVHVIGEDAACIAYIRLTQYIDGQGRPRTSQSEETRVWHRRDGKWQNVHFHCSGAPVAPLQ

PP1 catalytic subunit gamma (PPP1CC) (from UniProt P63087 1-323) (enzyme)
reduction of CaMKII–PPP1CC co-precipitate in Sh3rf2 KO against WT striatum: 80%
